Results published in US6127149.

Target: cultured cells CH3/10T1/2 clone 8 (product of Dainippon Pharmaceutical Co., Ltd.)
Experiment: adhesion of cells to coated dish (10 ug/cm^2), 1 hour, DNA of attached cells by spectrophotometer

B1: invariant modified epimorphin fragment: fragment (2) of mouse epimorphin (Examples 10 to 12) (protein)
chain: NGNRTSVDLRIRRTQHSVLSRKFVDVMTEYNEAQILFRERSKGRIQRQLEITGRTTTDDELEEMLESGKPSIFISDIISDSQIT
  absorbance (OD at 260 nm) of attached cells: 0.33 OD at 260 nm
